Target: EsxX glycine zipper peptide (EsxX 448-476), N-terminal biotin (Staphylococcus aureus (ST398))
Experiment: BLI; biotinylated peptide captured on streptavidin SAX biosensors (~1.0 nm); ExiABhis 50 uM to 1.6 uM in 2-fold dilutions in 10X Kinetics Buffer; association 180 s at 25 C; 1:1 kinetic model and steady-state model

How did the Kd turn out when ExiA-ExiBhis dimer (complex) was run?
Its Kd is 22 µM.

And the stoichiometry N?
The stoichiometry N was 1.
